Consider 15 molecules from patent US5849890, “High affinity oligonucleotide ligands to chorionic gonadotropin hormone and related glycoprotein hormones” (NeXstar Pharmaceuticals, Inc.).

In general, Kd refers to the concentration at which binding is half-saturated.

The target of data set [1] is T1, human chorionic gonadotropin (hCG) heterodimer (Homo sapiens, UniProt P01215;P0DN86 P01215:25-116,P0DN86:21-165). In words: filter; no significant stem. The conditions noted are these: tags: Calbiochem or Vitro Diagnostics (14,000 IU/mg); chain copies: alpha/beta heterodimer (stated); label: 32P. The text has this: (§1) PCR products generated from the RNA population isolated after six cycles of selection were cloned into pUC18 and 43 clones were sequenced (Table 13). As with the high affinity ligands selected in the first SELEX experiment in this example, 37 of the sequenced ligands are capable of assuming a stem-loop structure which places the conserved, unselected, 13-nt sequence in the "loop" structure.

For data set [2], the target named is human follicle stimulating hormone (hFSH) (Homo sapiens, UniProt P01215;P01225 P01215:25-116,P01225:19-129). In words: filter. The conditions noted are these: tags: Becton Dickinson; chain copies: alpha/beta heterodimer (inferred); label: 32P; possible hairpin; no G4 by RNase T1.
The target in data set [3] is human thyroid stimulating hormone (hTSH) (Homo sapiens, UniProt P01215;P01222 P01215:25-116,P01222:21-132). In words: filter; not pH sensitive, pH 5.8-7.2. As to conditions: tags: Becton Dickinson; chain copies: alpha/beta heterodimer (inferred); label: 32P; possible hairpin; no G4 by RNase T1.
Data set [4] addresses human luteinizing hormone (hLH) (Homo sapiens, UniProt P01215;P01229 P01215:25-116,P01229:21-141). In words: filter. The conditions noted are these: tags: Becton Dickinson (2'-NH2 work); Scripps/Vitro Diagnostics (2'-F work); chain copies: alpha/beta heterodimer (inferred); label: 32P; G4 (RNase T1 protection in K+). The method, then: (§2) Internally-labeled RNA transcripts were prepared by including [α-^32P]ATP in T7 RNA polymerase transcription reactions. Full-length transcripts were purified on 8% denaturing polyacrylamide gels to ensure size homogeneity. Gel-purified RNA was diluted to a concentration of ~5 nM in TEM buffer, heated to 80° C. then chilled on ice to facilitate secondary structure formation. RNA concentrations were kept lower than 100 pM in binding reactions. Briefly, equal amounts of RNA were incubated with varying amounts of hormone in 50 μL of TEM buffer for 10 minutes at 37° C. RNA-protein mixtures were passed through pre-wet nitrocellulose filters (0.2μ), and the filters were immediately washed with 5 mL of binding buffer. Radioactivity retained on filters was determined by liquid scintillation counting. The quantities of RNA bound to filters in the absence of protein was determined and used for background correction. The percentage of input RNA retained on each filter was plotted against the corresponding log protein concentration. The nonlinear least square method was used to obtain the dissociation constant (K_d) (Jellinek et al. (1993) Proc. Natl. Acad. Sci. U.S.A. 90:11227–11231; Irvine et al. (1991) J. Mol. Biol. 222:739–761).
By incorporating a counterselection step, SELEX allowed the isolation of hCG-specific RNA ligands (Example 5, infra).

Data set [5] addresses T1, human chorionic gonadotropin (hCG) …. The data set can be described thus: filter; 5.8 +/- 2.8 nM in Table 5. As to conditions: tags: Calbiochem or Vitro Diagnostics (14,000 IU/mg); chain copies: alpha/beta heterodimer (stated); label: 32P; G4 (RNase T1 protection in K+).
For data set [6] the target is unchanged. The data set can be described thus: filter; +/- 9 nM. As to conditions: tags: Calbiochem or Vitro Diagnostics (14,000 IU/mg); chain copies: alpha/beta heterodimer (stated); label: 32P; intramolecular G4. The method, then: as §2
Data set [7] shares this target. The data set can be described thus: filter; conserved region mutated. The conditions noted are these: tags: Calbiochem or Vitro Diagnostics (14,000 IU/mg); chain copies: alpha/beta heterodimer (stated); label: 32P.
Source text: as §1

Data set [8] shares this target. The data set can be described thus: filter; +/- 13 nM. The conditions noted are these: tags: Calbiochem or Vitro Diagnostics (14,000 IU/mg); chain copies: alpha/beta heterodimer (stated); label: 32P; intramolecular G4. The method, then: as §2
Data set [9] has the same target. In words: filter; SBB buffer. As to conditions: tags: Calbiochem or Vitro Diagnostics (14,000 IU/mg); chain copies: alpha/beta heterodimer (stated); label: 32P; hairpin.
Data set [10] shares this target. The data set can be described thus: filter; in urine. As to conditions: tags: Calbiochem or Vitro Diagnostics (14,000 IU/mg); chain copies: alpha/beta heterodimer (stated); label: 32P; hairpin.
Data set [11] has the same target. The data set can be described thus: filter. As to conditions: tags: Calbiochem or Vitro Diagnostics (14,000 IU/mg); chain copies: alpha/beta heterodimer (stated); label: 32P.

T1 sequence (P01215 25-116, chain 1 of 2, other chains not shown): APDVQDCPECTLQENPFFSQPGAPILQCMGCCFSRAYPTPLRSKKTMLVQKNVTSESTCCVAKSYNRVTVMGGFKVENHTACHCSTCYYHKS
Chain of human luteinizing hormone (hLH) (P01215 25-116, chain 1 of 2): as the sequence (P01215 25-116, chain 1 of 2, other chains not shown) above
Chain of human luteinizing hormone (hLH) (P01229 21-141, chain 2 of 2): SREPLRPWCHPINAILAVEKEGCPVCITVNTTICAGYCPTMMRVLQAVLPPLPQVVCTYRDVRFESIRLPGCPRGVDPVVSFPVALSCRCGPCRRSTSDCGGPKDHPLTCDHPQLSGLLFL
Chain of human thyroid stimulating hormone (hTSH) (P01215 25-116, chain 1 of 2): as the sequence (P01215 25-116, chain 1 of 2, other chains not shown) above
Chain of human thyroid stimulating hormone (hTSH) (P01222 21-132, chain 2 of 2): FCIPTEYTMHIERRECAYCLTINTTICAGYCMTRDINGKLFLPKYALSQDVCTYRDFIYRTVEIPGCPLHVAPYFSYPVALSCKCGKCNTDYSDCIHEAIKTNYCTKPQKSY
Chain of human follicle stimulating hormone (hFSH) (P01215 25-116, chain 1 of 2): as the sequence (P01215 25-116, chain 1 of 2, other chains not shown) above
Chain of human follicle stimulating hormone (hFSH) (P01225 19-129, chain 2 of 2): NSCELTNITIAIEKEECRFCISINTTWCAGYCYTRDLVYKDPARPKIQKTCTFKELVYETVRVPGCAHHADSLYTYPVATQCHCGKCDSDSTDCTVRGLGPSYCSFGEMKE

B1: 2nd generation ligand 76 (ssRNA)
RNA: GGGAGGACGAUGCGGACCGACUAAAUGAUUGAACGAUCCUUAUUGUCUCUAUCACAGACGACUCGCCCGA
modifications: 2'-F all pyrimidines
B1 displayed a binding signal in data set [1] of 0.2 % bound at 100 nM.

B2: T-15 (ssRNA)
RNA: GGGAGGACGAUGCGGAUGUUGGCAGCAGGGUCCGACGGCGUAACCUUGCCAGCUGCAGACGACUCGCCCGA
modifications: 2'-NH2 all pyrimidines
Consider B2, for which the figures for the Kd in data set [2] and in [3] were around 200 nM and 14 nM, respectively.

B3: H-25 (ssRNA)
RNA: GGGAGGACGAUGCGGAAAGGAGGAGGCUGGGUGCGUCAAGAGUUCUCCCGAGCGCCAGACGACUCGCCCGA
modifications: 2'-NH2 all pyrimidines
Take B3: the Kd in data set [4] is 17.5 nM; in data set [5], 6 nM.

The molecule GGAGGACGAUGCGGAAAGGAGGAGGCUGGGUGCGUC (ssRNA, 2'-NH2 all pyrimidines) [delta25] showed a Kd in data set [6] of 24 nM.

B4: 2nd generation ligand 8 (ssRNA)
RNA: GGGAGGACGAUGCGGUUCGAUUCCAAGUUGAACGAUCCUCCUUUUGAUUAGACCAGACGACUCGCCCGA
modifications: 2'-F all pyrimidines
Molecule B4 came in with a binding signal in data set [7] of 0.73 % bound at 100 nM.

The molecule GGAGGACGAUGCGGAGGGAACGCGGAGGGGUG (ssRNA, 2'-NH2 all pyrimidines) [delta17] showed a Kd in [8] of 25 nM.

B5: 2nd generation ligand 95 (ssRNA)
RNA: GGGAGGACGAUGCGGGUUUUCCUACUAGUUGAAUGAUCCUUCUAGUUAGAUGCCAGACGACUCGCCCGA
modifications: 2'-F all pyrimidines
B5: the binding signal in data set [7] was 1.57 % bound at 100 nM.

B6: 2nd generation ligand 77 (ssRNA)
RNA: GGGAGGACGAUGCGGCAGUGUCAACAUCUUGAACGAUCCUUUUUUUCAGCGCGUCAGACGACUCGCCCGA
modifications: 2'-F all pyrimidines
For the molecule B6, the binding signal in [1] was found to be 0.42 % bound at 100 nM.

B7: 2nd generation ligand 82 (ssRNA)
RNA: GGGAGGACGAUGCGGUAACAGUCGAUUCUUGAACGAUCCUUUCCACUUCAACCGCAGACGACUCGCCCGA
modifications: 2'-F all pyrimidines
In data set [1], B7 had a binding signal of 0 % bound at 100 nM.

B8: 2nd generation ligand 59 (ssRNA)
RNA: GGGAGGACGAUGCGGUAACUCUUAAUUCUUGAACAAUCCUUGAAUUUAGCGGACCAGACGACUCGCCCGA
modifications: 2'-F all pyrimidines
B8 had a binding signal in data set [7] of 1.88 % bound at 100 nM.

GGGAGUCUCGUUGGUCGUUGAACGAUCCUUCGACAGGAGGCUCA (ssRNA, 2'-F all pyrimidines) [hCG ligand 9TR1]: the Kd in [9] was determined as 200 nM; in data set [10], 100 nM.

B9: 2nd generation ligand 84 (ssRNA)
RNA: GGGAGGACGAUGCGGUUGGUUAUCCAUGUUGAACGUUCCUUCAUGUCGAAUAUGCAGACGACUCGCCCGA
modifications: 2'-F all pyrimidines
Take B9: the binding signal in data set [7] is 0.24 % bound at 100 nM.

B10: 2nd generation ligand 7 (ssRNA)
RNA: GGGAGGACGAUGCGGAUGAGCUUGAUAAUGGAACGAUCCUUUUAACGGUUCUUCCAGACGACUCGCCCGA
modifications: 2'-F all pyrimidines
For the molecule B10, in data set [7], the binding signal is 0 % bound at 100 nM.

B11: Class 1 ligand 28 (ssRNA)
RNA: GGGAGACAAGAAUAAACGCUCAAACAGCGAUUGAACGAUCCUUUCAGCUGAUGGGUACGGGAUUCGACAGGAGGCUCACAACAGGC
modifications: 2'-F all pyrimidines
In the case of B11, the binding signal in data set [11] worked out at 0.58 % bound at 100 nM.

B12: 2nd generation ligand 37 (ssRNA)
RNA: GGGAGGACGAUGCGGAAUUCCCCCAAGAUUGAACGGUCCUUUCUCGCAGAUGUUCAGACGACUCGCCCGA
modifications: 2'-F all pyrimidines
B12 had a binding signal in [7] of 0 % bound at 100 nM.
